# Laboratory results taken from patent US20230140293A1.
# Legend:
# Assay in all cases: cell-based or functional assay
# [1] = target: CH0505.w4.3 Env, Env-pseudotyped virus produced in 293T cells (HIV-1)
# [2] = target: CH0505TF Env, Env-pseudotyped virus produced in 293S GnTI- cells (Man5-enriched) (HIV-1)
# [3] = target: CH0505TF Env, Env-pseudotyped virus produced in 293T cells (HIV-1)
# [4] = target: CH0505TF.G458Y Env, Env-pseudotyped virus produced in 293S GnTI- cells (Man5-enriched) (HIV-1)
# [5] = target: CH0505TF.G458Y Env, Env-pseudotyped virus produced in 293T cells (HIV-1)
# [6] = target: CH0505TF.gly3.197 Env, Env-pseudotyped virus produced in 293S GnTI- cells (Man5-enriched) (HIV-1)
# [7] = target: CH0505TF.gly3.197 Env, Env-pseudotyped virus produced in 293T cells (HIV-1)
# [8] = target: CH0505TF.gly3.276 Env, Env-pseudotyped virus produced in 293S GnTI- cells (Man5-enriched) (HIV-1)
# [9] = target: CH0505TF.gly3.276 Env, Env-pseudotyped virus produced in 293T cells (HIV-1)
# [10] = target: CH0505TF.gly3.461 Env, Env-pseudotyped virus produced in 293S GnTI- cells (Man5-enriched) (HIV-1)
# [11] = target: CH0505TF.gly3.461 Env, Env-pseudotyped virus produced in 293T cells (HIV-1)
# [12] = target: CH0505TF.gly4 Env, Env-pseudotyped virus produced in 293S GnTI- cells (Man5-enriched) (HIV-1)
# [13] = target: CH0505TF.gly4 Env, Env-pseudotyped virus produced in 293T cells (HIV-1)
# [14] = target: HIV-1 426c.DM (N460D/N463D) Env on Env-pseudotyped virus produced in 293T cells (HIV-1)
# [15] = target: HIV-1 426c.DM (N460D/N463D) Env on Env-pseudotyped virus produced in 293s/GnTI-/- cells (Man5-enrichment) (HIV-1)
# [16] = target: HIV-1 426c.SM (N276D) Env on Env-pseudotyped virus produced in 293T cells (HIV-1)
# [17] = target: HIV-1 426c.SM (N276D) Env on Env-pseudotyped virus produced in 293s/GnTI-/- cells (Man5-enrichment) (HIV-1)
# [18] = target: HIV-1 426c.TM (N276D/N460D/N463D) Env on Env-pseudotyped virus produced in 293T cells (HIV-1)
# [19] = target: HIV-1 426c.TM (N276D/N460D/N463D) Env on Env-pseudotyped virus produced in 293s/GnTI-/- cells (Man5-enrichment) (HIV-1)
# [20] = target: HIV-1 Env 426c, Env-pseudotyped virus produced in 293S GnTI- cells (Man5-enriched) (HIV-1 clade C strain 426c)
# [21] = target: HIV-1 Env 426c, Env-pseudotyped virus produced in 293T cells (HIV-1 clade C strain 426c)
# [22] = target: HIV-1 Env 426c.DM (N460D.N463D), Env-pseudotyped virus produced in 293S GnTI- cells (Man5-enriched) (HIV-1 clade C strain 426c)
# [23] = target: HIV-1 Env 426c.DM (N460D.N463D), Env-pseudotyped virus produced in 293T cells (HIV-1 clade C strain 426c)
# [24] = target: HIV-1 Env 426c.SM (N276D), Env-pseudotyped virus produced in 293S GnTI- cells (Man5-enriched) (HIV-1 clade C strain 426c)
# [25] = target: HIV-1 Env 426c.SM (N276D), Env-pseudotyped virus produced in 293T cells (HIV-1 clade C strain 426c)
# [26] = target: HIV-1 Env 426c.TM (N276D.N460D.N463D), Env-pseudotyped virus produced in 293S GnTI- cells (Man5-enriched) (HIV-1 clade C strain 426c)
# [27] = target: HIV-1 Env 426c.TM (N276D.N460D.N463D), Env-pseudotyped virus produced in 293T cells (HIV-1 clade C strain 426c)
# [28] = target: HIV-1 Env 426c.TM4 (S278R.G471S.N460D.N463D), Env-pseudotyped virus produced in 293S GnTI- cells (Man5-enriched) (HIV-1 clade C strain 426c)
# [29] = target: HIV-1 Env 426c.TM4 (S278R.G471S.N460D.N463D), Env-pseudotyped virus produced in 293T cells (HIV-1 clade C strain 426c)
# [30] = target: HIV-1 clade C strain 426c Env on Env-pseudotyped virus produced in 293T cells (HIV-1)
# [31] = target: HIV-1 clade C strain 426c Env on Env-pseudotyped virus produced in 293s/GnTI-/- cells (Man5-enrichment) (HIV-1)
Substance,IC50 (µg/ml) in TZM-bl [1],IC50 (µg/ml) in TZM-bl [2],IC50 (µg/ml) in TZM-bl [3],IC50 (µg/ml) in TZM-bl [4],IC50 (µg/ml) in TZM-bl [5],IC50 (µg/ml) in TZM-bl [6],IC50 (µg/ml) in TZM-bl [7],IC50 (µg/ml) in TZM-bl [8],IC50 (µg/ml) in TZM-bl [9],IC50 (µg/ml) in TZM-bl [10],IC50 (µg/ml) in TZM-bl [11],IC50 (µg/ml) in TZM-bl [12],IC50 (µg/ml) in TZM-bl [13],ID50/IC50 in TZM-bl [14],ID50/IC50 in TZM-bl [15],ID50/IC50 in TZM-bl [16],ID50/IC50 in TZM-bl [17],ID50/IC50 in TZM-bl [18],ID50/IC50 in TZM-bl [19],IC50 (µg/ml) in TZM-bl [20],further results
4E10 (antibody),> 50 µg/mL,10 µg/mL,22 µg/mL,10 µg/mL,8 µg/mL,14 µg/mL,21 µg/mL,13 µg/mL,17 µg/mL,12 µg/mL,16 µg/mL,12.3 µg/mL,14 µg/mL,1 µg/mL,3.7 µg/mL,1.52 µg/mL,3.8 µg/mL,0.98 µg/mL,4 µg/mL,4 µg/mL,IC50 (µg/ml) in TZM-bl [21]: 3.32 µg/mL; IC50 (µg/ml) in TZM-bl [22]: 3.7 µg/mL; IC50 (µg/ml) in TZM-bl [23]: 1 µg/mL; IC50 (µg/ml) in TZM-bl [24]: 3.8 µg/mL; IC50 (µg/ml) in TZM-bl [25]: 1.52 µg/mL; IC50 (µg/ml) in TZM-bl [26]: 4 µg/mL; IC50 (µg/ml) in TZM-bl [27]: 0.98 µg/mL; IC50 (µg/ml) in TZM-bl [28]: 1.6 µg/mL; IC50 (µg/ml) in TZM-bl [29]: 1.66 µg/mL; ID50/IC50 in TZM-bl [30]: 3.32 µg/mL; ID50/IC50 in TZM-bl [31]: 4 µg/mL
10-1074 (antibody),> 25 µg/mL,> 25 µg/mL,> 25 µg/mL,> 25 µg/mL,> 25 µg/mL,> 25 µg/mL,> 25 µg/mL,> 25 µg/mL,> 25 µg/mL,> 25 µg/mL,> 25 µg/mL,> 25 µg/mL,> 25 µg/mL,0.1 µg/mL,0.03 µg/mL,0.12 µg/mL,0.04 µg/mL,0.16 µg/mL,0.03 µg/mL,0.03 µg/mL,IC50 (µg/ml) in TZM-bl [21]: 0.05 µg/mL; IC50 (µg/ml) in TZM-bl [22]: 0.03 µg/mL; IC50 (µg/ml) in TZM-bl [23]: 0.1 µg/mL; IC50 (µg/ml) in TZM-bl [24]: 0.04 µg/mL; IC50 (µg/ml) in TZM-bl [25]: 0.12 µg/mL; IC50 (µg/ml) in TZM-bl [26]: 0.03 µg/mL; IC50 (µg/ml) in TZM-bl [27]: 0.16 µg/mL; IC50 (µg/ml) in TZM-bl [28]: 0.02 µg/mL; IC50 (µg/ml) in TZM-bl [29]: 0.06 µg/mL; ID50/IC50 in TZM-bl [30]: 0.05 µg/mL; ID50/IC50 in TZM-bl [31]: 0.03 µg/mL
2219 (antibody),> 25 µg/mL,> 25 µg/mL,> 25 µg/mL,> 25 µg/mL,> 25 µg/mL,> 25 µg/mL,> 25 µg/mL,> 25 µg/mL,> 25 µg/mL,> 25 µg/mL,> 25 µg/mL,> 25 µg/mL,> 25 µg/mL,> 25 µg/mL,> 25 µg/mL,> 25 µg/mL,> 25 µg/mL,> 25 µg/mL,> 25 µg/mL,> 25 µg/mL,IC50 (µg/ml) in TZM-bl [21]: > 25 µg/mL; IC50 (µg/ml) in TZM-bl [22]: > 25 µg/mL; IC50 (µg/ml) in TZM-bl [23]: > 25 µg/mL; IC50 (µg/ml) in TZM-bl [24]: > 25 µg/mL; IC50 (µg/ml) in TZM-bl [25]: > 25 µg/mL; IC50 (µg/ml) in TZM-bl [26]: > 25 µg/mL; IC50 (µg/ml) in TZM-bl [27]: > 25 µg/mL; IC50 (µg/ml) in TZM-bl [28]: > 25 µg/mL; IC50 (µg/ml) in TZM-bl [29]: > 25 µg/mL; ID50/IC50 in TZM-bl [30]: > 25 µg/mL; ID50/IC50 in TZM-bl [31]: > 25 µg/mL
2557 (antibody),> 25 µg/mL,> 25 µg/mL,> 25 µg/mL,> 25 µg/mL,> 25 µg/mL,> 25 µg/mL,> 25 µg/mL,> 25 µg/mL,> 25 µg/mL,> 25 µg/mL,> 25 µg/mL,> 25 µg/mL,> 25 µg/mL,> 25 µg/mL,> 25 µg/mL,> 25 µg/mL,> 25 µg/mL,> 25 µg/mL,> 25 µg/mL,> 25 µg/mL,IC50 (µg/ml) in TZM-bl [21]: > 25 µg/mL; IC50 (µg/ml) in TZM-bl [22]: > 25 µg/mL; IC50 (µg/ml) in TZM-bl [23]: > 25 µg/mL; IC50 (µg/ml) in TZM-bl [24]: > 25 µg/mL; IC50 (µg/ml) in TZM-bl [25]: > 25 µg/mL; IC50 (µg/ml) in TZM-bl [26]: > 25 µg/mL; IC50 (µg/ml) in TZM-bl [27]: > 25 µg/mL; IC50 (µg/ml) in TZM-bl [28]: > 25 µg/mL; IC50 (µg/ml) in TZM-bl [29]: > 25 µg/mL; ID50/IC50 in TZM-bl [30]: > 25 µg/mL; ID50/IC50 in TZM-bl [31]: > 25 µg/mL
